Drawing on publication PMC4911930, this text covers Kd, percent reduction of binding against unmutated Spt16 926–965 and accumulation of endogenous CENP-T for three substances.

Broadly, the pKd is the Kd on a negative log10 scale, so that one unit is a factor of ten.

Assay [1] deals with CENP-T^HFD/-W complex (UniProt Q5EE01). Briefly: ITC; Spt16-CTD (amino acids 926–965; 2.2 mM) injected into 200 µL of 150 µM CENP-T/-W, human H2A/H2B or CENP S/X; 20°C; 20 mM Tris pH 7.5, 0.2 M NaCl; single-site model for CENP-T/-W, two-site model for H2A/H2B.
For assay [2], the target named is Spt16 952–955A (human) (UniProt Q9Y5B9). The experiment in a line: pull-down; GST-tagged Spt16 fragments and alanine mutants as bait, CENP-T^HFD/-W as prey, GST alone as control; Coomassie gel; also with 1 M NaCl for 926–1047 (Supplemental Fig. S5a).
In assay [3] the target is Spt16 956–960A (human) (UniProt Q9Y5B9). The description is as above.
Assay [4] concerns the target Spt16 (human (endogenous in HeLa and U2OS)) (UniProt Q9Y5B9).

pKd: −log10 of the molar value.

Chain of CENP-T (Q96BT3 whole entry): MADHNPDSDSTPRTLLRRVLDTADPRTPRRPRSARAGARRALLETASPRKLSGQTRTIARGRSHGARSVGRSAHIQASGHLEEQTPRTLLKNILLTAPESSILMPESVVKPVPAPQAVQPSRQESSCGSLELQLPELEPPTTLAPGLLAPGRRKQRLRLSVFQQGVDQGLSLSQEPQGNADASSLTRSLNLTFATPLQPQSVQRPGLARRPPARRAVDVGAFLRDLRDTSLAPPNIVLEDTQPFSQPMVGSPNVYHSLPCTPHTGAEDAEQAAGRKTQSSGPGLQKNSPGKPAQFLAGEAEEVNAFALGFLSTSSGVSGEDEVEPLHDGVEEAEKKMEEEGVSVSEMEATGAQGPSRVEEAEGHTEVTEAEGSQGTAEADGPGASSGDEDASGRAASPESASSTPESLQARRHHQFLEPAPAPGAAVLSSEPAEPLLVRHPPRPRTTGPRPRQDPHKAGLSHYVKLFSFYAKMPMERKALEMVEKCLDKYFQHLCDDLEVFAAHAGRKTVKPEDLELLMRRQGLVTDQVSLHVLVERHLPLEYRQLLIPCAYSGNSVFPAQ

The substance “Spt16-CTD (Spt16 amino acids 926–965) (from UniProt Q9Y5B9 926-965) (domain or fragment)” had a pKd in assay [1] of 5.20.
On to “CENP-T^HFD/-W complex (from UniProt Q5EE01 1-88)”, for which the percent reduction of binding against unmutated Spt16 926–965 in assay [2] is less than 40%; in assay [3] it was less than 60%.
As for “CENP-T (from UniProt Q96BT3 1-561) (natural protein)”, in assay [4], the accumulation of endogenous CENP-T at the LacO locus in cells transfected with eGFP-LacI-Spt16 (immunofluorescence after 24 h) was 10 % of cells.
